In patent US20250188153A1:

B1: MPE8 (antibody, V domains shown)
VH: EVQLVESGGGLVKPGGSLRLSCAASGFTFSSYSMNWVRQAPGKGLEWVSSISASSSYSDYADSAKGRFTISRDNAKTSLFLQMNSLRAEDTAIYFCARARATGYSSITPYFDIWGQGTLVTVSS
VL: QSVVTQPPSVSGAPGQRVTISCTGSSSNIGAGYDVHWYQQLPGTAPKLLIYDNNNRPSGVPDRFSASKSGTSASLAITGLQAEDEADYYCQSYDRSLSGVFGTGTKVTVL
B2: MPV483 (antibody, V domains shown)
VH: EVQLVQSGAELKKPGSSVKVSCKASGDTFSNYAISWVRQAPGQGLEWMGGIIPIYNTANYAQKFQGRVTLTADESTSTAYMELSSLRSEDTAVYYCARDVRNNWSVLRGARYYYYGMDVWGQGTTVTVSS
VL: DIVMTQTPFSLSASVGDRVTVTCRASQDISNSLAWFQQKPGKAPKSLIYAASSLQSGVPTRFSGGGSGTDFTLTISSLQPEDFATFYCLQYDSFPPTFGGGTKVEI
B3: MPV464 (antibody, V domains shown)
VH: QVQLQESGPGLVKPSQTLSLTCTVSGGSVRGGGDYWSWIRRPPGKGLEWIGHIYNSGTTFYNPSLKSRVTISIDTSKNQFSLKLRSVTAADTAVYYCGRVGSRATGLPDWIDPWGQGTLVTVSS
VL: SYELTQPPSVSVSPGQTATITCSGTNLGAKYSCWYQQKPGQSPVLVIFQDNKRASGIPARFSASTSGDTATLTISGTQVMDEADYFCQAWDSRTAVFGGGTTLTVL
B4: MPV467 Fab (Fab, V domains shown)
VH: EVQLVESGGGVVRPGTSLRVSCAAFDFNFRDYGMHWVRQAPGKGLEWVAGIWYDGSNKDYADSVKGRFTISRDNSQNTLYLQMNSLRVEDTAVYYCARDPRTHREGALSHFDSWGQGTLVTVSS
VL: PNELTQDPAVSVALGQTVRITCQGDSLRNYFAGWYQQKPGQAPLLVLYGENIRPSGIPDRFSGSSSGNTVSLTITGAQAEDEADYYCNSRDNSGNHWVFGGGTRLTVL

Legend:
[1] = molecular target: hMPV B2 F protein (his-tagged, not trypsin treated) (human metapneumovirus); experiment: BLI epitope binning on hMPV B2 F; first mAb MPV314, second mAb MPE8
[2] = molecular target: hMPV B2 F protein (his-tagged, not trypsin treated) (human metapneumovirus); experiment: BLI epitope binning on hMPV B2 F; first mAb MPV487, second mAb MPE8
[3] = molecular target: hMPV B2 F protein (his-tagged, not trypsin treated) (human metapneumovirus); experiment: BLI epitope binning on hMPV B2 F; first mAb MPV488, second mAb MPE8
[4] = molecular target: hMPV B2 F protein (his-tagged, not trypsin treated) (human metapneumovirus); experiment: BLI epitope binning on hMPV B2 F; first mAb MPV481, second mAb MPE8
[5] = molecular target: hMPV B2 F protein (his-tagged, not trypsin treated) (human metapneumovirus); experiment: BLI epitope binning on hMPV B2 F; first mAb MPV477, second mAb MPE8
[6] = molecular target: hMPV B2 F protein (his-tagged, not trypsin treated) (human metapneumovirus); experiment: BLI epitope binning on hMPV B2 F; first mAb MPV483, second mAb MPE8
[7] = molecular target: hMPV B2 F protein (his-tagged, not trypsin treated) (human metapneumovirus); experiment: BLI epitope binning on hMPV B2 F; first mAb MPV414, second mAb MPE8
[8] = molecular target: hMPV B2 F protein (his-tagged, not trypsin treated) (human metapneumovirus); experiment: BLI epitope binning on hMPV B2 F; first mAb MPV503, second mAb MPE8
[9] = molecular target: hMPV B2 F monomer (human metapneumovirus); experiment: ELISA on coated recombinant protein, OD 405 nm
[10] = molecular target: hMPV A1 F (human metapneumovirus); experiment: ELISA on coated recombinant protein, OD 405 nm
[11] = molecular target: hMPV B1 F (human metapneumovirus); experiment: ELISA on coated recombinant protein, OD 405 nm
[12] = molecular target: hMPV B2 F protein (his-tagged, not trypsin treated) (human metapneumovirus); experiment: ELISA on coated recombinant protein, OD 405 nm
[13] = molecular target: hMPV B2 F trimer (heated) (human metapneumovirus); experiment: ELISA on coated recombinant protein, OD 405 nm
[14] = molecular target: hMPV A1 F trimer (heated) (human metapneumovirus); experiment: ELISA on coated recombinant protein, OD 405 nm
[15] = molecular target: hMPV B2 F GCN4 (human metapneumovirus); experiment: ELISA on coated recombinant protein, OD 405 nm
[16] = molecular target: hMPV A2 F (human metapneumovirus); experiment: ELISA on coated recombinant protein, OD 405 nm
[17] = molecular target: hMPV A1 F monomer (human metapneumovirus); experiment: ELISA on coated recombinant protein, OD 405 nm
[18] = molecular target: DS-CavEs2-IPDS (human metapneumovirus); experiment: cryo-EM structure

Binder | % binding of the second mAb after the first mAb [1] | % binding of the second mAb after the first mAb [2] | % binding of the second mAb after the first mAb [3] | % binding of the second mAb after the first mAb [4] | % binding of the second mAb after the first mAb [5] | % binding of the second mAb after the first mAb [6] | % binding of the second mAb after the first mAb [7] | % binding of the second mAb after the first mAb [8] | EC50 [9] | EC50 [10] | EC50 [11] | EC50 [12] | EC50 [13] | EC50 [14] | EC50 [15] | EC50 [16] | EC50 [17] | buried surface area on hMPV F (heavy chain) [18] | buried surface area on hMPV F (light chain) [18]
B1 | 4% | 4% | 42% | 72% | 1% | 71% | 2% | -1% |  |  |  |  |  |  |  |  |  |  | 
B2 |  |  |  |  |  |  |  |  | 0.13 µg/mL | 0.12 µg/mL | 0.12 µg/mL | 0.22 µg/mL | 0.33 µg/mL | 0.27 µg/mL | 0.14 µg/mL | 0.07 µg/mL | 0.16 µg/mL |  | 
B3 |  |  |  |  |  |  |  |  | 0.098 µg/mL | 0.28 µg/mL | 0.086 µg/mL | 0.98 µg/mL | 0.29 µg/mL | 0.24 µg/mL | 0.12 µg/mL | 0.083 µg/mL | 0.067 µg/mL |  | 
B4 |  |  |  |  |  |  |  |  |  |  |  |  |  |  |  |  |  | 567 Å^2 | 322 Å^2
